Measured values from patent US8187838B2, “β-Galactoside-α2, 6-sialyltransferase, a gene encoding thereof, and a method for producing thereof” (Japan Tobacco Inc., priority 2006, dated 2012).
Entries after “also recorded” stand apart in the source; their conditions may differ.

Key:
Assay type in all cases: biochemical
[1] = Confirmation of binding mode of sialic acid with pyridylaminated lactose, HPLC of product; conditions: crude enzyme solution, CMP-NeuAc, 25° C., 18 hours
Procedure: To determine the binding mode of sialic acid, a reaction using PA-lactose as a substrate was then performed. The enzymatic reaction was accomplished by using the resulting crude enzyme solution and a pyridylaminated sugar chain as a glycosyl acceptor substrate. The pyridylaminated sugar chain used for analysis was pyridylaminated lactose (Galβ1-4Glc-PA, Takara Bio Inc., Japan). To 5 μl of the crude enzyme solution, 1.5 μl of 5 mM CMP-NeuAc and 1.5 μl of 10 pmol/μl glycosyl acceptor substrate were added and reacted at 25° C. for 18 hours. After the reaction, the reaction solution was treated at 100° C. for 2 minutes to inactivate the enzyme, followed by HPLC to analyze the reaction product. The HPLC system used was Shimadzu LC10A (Shimadzu Corporation, Japan) and the analytical column used was Takara PALPAK Type R (Takara Bio Inc., Japan). […] The analysis was performed under the following conditions: flow rate: 1 ml/min, column temperature: 40° C., detection: fluorescence (Ex: 320 nm, Em: 400 nm).
The crude enzyme solution prepared in (4) above from the ISH224-N1C0 or ISH224-N0C0 clone was used to examine whether sialyltransferase expressed by E. coli cells into which ISH224-N0C0/pTrc or ISH224-N1C0/pTrc had been introduced had β-galactoside-α2,6-sialyltransferase activity. […] As a result, PA-6′-sialyllactose (Neu5Acα2-6Galβ1-4Glc-PA) was detected, as in the case of Example 1.

[2] = Sialyltransferase activity of samples after each purification step; conditions: for Specific activity (U/mg) / Total activity (U): Bis-Tris pH 6, 5 minutes, 25° C.
Procedure: (§1) Sialyltransferase activity was measured as described in J. Biochem., 120, 104-110 (1996) (which is hereby incorporated by reference in its entirety). More specifically, the enzymatic reaction was accomplished by using CMP-NeuAc (70 nmol, containing about 20,000 cpm CMP-NeuAc in which NeuAc was labeled with ^14C; NeuAc represents N-acetylneuraminic acid) as a glycosyl donor substrate, lactose (1.25 μmol) as a glycosyl acceptor substrate, NaCl added to give a concentration of 0.5 M, and the enzyme-containing reaction solution (30 μl) prepared as described above. The enzymatic reaction was carried out at 25° C. for about 10 to 180 minutes. After completion of the reaction, 1.97 ml of 5 mM phosphate buffer (pH 6.8) was added to the reaction solution, which was then applied to a Dowex 1×8 (PO4^3− form, 0.2×2 cm, BIO-RAD) column. The radioactivity was measured for the reaction product, i.e., sialyllactose contained in the eluate (0 to 2 ml) from this column to calculate the enzyme activity. One enzyme unit (1 U) is defined as the amount of enzyme required to transfer 1 micromole of sialic acid per minute.
The enzyme activity was measured by the method reported in J. Biochem. 120, 104-110 (1996), in the same manner as described in Example 1 under conditions as indicated in the footnote of Table 3-1. For protein quantification, a Coomassie Protein Assay Reagent (PIERCE) was used according to the instruction manual attached thereto. One enzyme unit (1U) was defined as the amount of enzyme required to transfer 1 micromole of sialic acid per minute.
Reaction time: 5 minutes Reaction temperature: 25° C.
The enzyme activity was measured by the method reported in J. Biochem. 120, 104-110 (1996), in the same manner as described in Example 1 under conditions as indicated in the footnote of Table 3-2. For protein quantification, a Coomassie Protein Assay Reagent (PIERCE) was used according to the instruction manual attached thereto. One enzyme unit (1U) was defined as the amount of enzyme required to transfer 1 micromole of sialic acid per minute.
(§2) Reaction Conditions Reaction composition:
Reaction time: 5 minutes Reaction temperature: 30° C.

[3] = Sialyltransferase activity in homogenate of E. coli carrying the JT-ISH-224 gene clones (14C-NeuAc transfer to lactose)
Procedure: as §1
An induction experiment of protein expression was performed on the five clones obtained in (3) above (i.e., ISH224-N0C0/pTrc, ISH224-N1C0/pTrc, ISH224-N2C0/pTrc, ISH224-N3C0/pTrc and ISH224-N3.1C0/pTrc). A single colony of E. coli TB1 having the expression vector pTrc99A carrying each clone was inoculated into LB medium (6 ml) containing an antibiotic, ampicillin (final concentration 100 μg/mL), and pre-cultured at 30° C. to about A600=0.5, followed by addition of IPTG (isopropyl-β-D(−)-thiogalactopyranoside, Wako Pure Chemical Industries, Ltd., Japan) at a final concentration of 1 mM. After culturing with shaking at 30° C. for an additional 4 hours, the cells in 4 ml culture solution were collected by centrifugation. These cells were suspended in 200 μl of 20 mM Bis-Tris buffer (pH 7.0) containing 0.336% Triton® X-100 and 0.5 M sodium chloride, and ultrasonically homogenized under ice cooling. The resulting homogenate was defined as a crude enzyme solution, diluted 200-fold with 20 mM cacodylate buffer (pH 5.0) containing 0.336% Triton® X-100, and then provided for activity measurement. The reaction was carried out in duplicate. The reaction conditions are as indicated in the footnotes of Tables 1-1 and 1-2.
as §2
Reaction time: 2 minutes Reaction temperature: 30° C.

[4] = after MONO Q (purified fraction)

B1: ISH224-N1C0 (protein, listed as Photobacterium sp.)
chain: MSEENTQSIIKNDINKTIIDEEYVNLEPINQSNISFTKHSWVQTCGTQQLLTEQNKESISLSVVAPRLDDDEKYCFDFNGVSNKGEKYITKVTLNVVAPSLEVYVDHASLPTLQQLMDIIKSEEENPTAQRYIAWGRIVPTDEQMKELNITSFALINNHTPADLVQEIVKQAQTKHRLNVKLSSNTAHSFDNLVPILKELNSFNNVTVTNIDLYDDGSAEYVNLYNWRDTLNKTDNLKIGKDYLEDVINGINEDTSNTGTSSVYNWQKLYPANYHFLRKDYLTLEPSLHELRDYIGDSLKQMQWDGFKKFNSKQQELFLSIVNFDKQKLQNEYNSSNLPNFVFTGTTVWAGNHEREYYAKQQINVINNAINESSPHYLGNSYDLFFKGHPGGGIINTLIMQNYPSMVDIPSKISFEVLMMTDMLPDAVAGIASSLYFTIPAEKIKFIVFTSTETITDRETALRSPLVQVMIKLGIVKEENVLFWADLPNCETGVCIAV
β-galactoside-α2,6-sialyltransferase activity (PA-6′-sialyllactose detected) [1]: found to have β-galactoside-α2,6-sialyltransferase activity
Specific activity (U/mg) ([2]; Crude enzyme solution): 12.0 U/mg
Total activity (U) ([2]; Crude enzyme solution): 13167 U
Specific activity (U/mg) ([2]; after Hydroxyapatite): 68.3 U/mg
Total activity (U) ([2]; after Hydroxyapatite): 9448 U
Specific activity (U/mg) [2, 4]: 113 U/mg
Total activity (U) [2, 4]: 2720 U
Specific activity (U/mg) ([2]; after Q SEPHAROSE): 31.8 U/mg
Total activity (U) ([2]; after Q SEPHAROSE): 11794 U
fold higher specific activity than Pasteurella multocida-derived β-galactoside-α2,3-sialyltransferase (60 U/mg) ([2]; purified fraction): about 1.9 fold
fold higher specific activity than β-galactoside-α2,6-sialyltransferase derived from Photobacterium damselae strain JT0160 (5.5 U/mg) ([2]; purified fraction): about 21 fold
Radioactivity (cpm) Round 1 ([3]; crude enzyme solution diluted 200-fold, lactose, 14C-CMP-sialic acid, 2 minutes, 30° C., Round 1): 1552 cpm
Radioactivity (cpm) Round 2 ([3]; crude enzyme solution diluted 200-fold, lactose, 14C-CMP-sialic acid, 2 minutes, 30° C., Round 2): 1711 cpm
Radioactivity (cpm) Average ([3]; crude enzyme solution diluted 200-fold, lactose, 14C-CMP-sialic acid, 2 minutes, 30° C., average of duplicate): 1631.5 cpm
sialyltransferase activity of the expressed clone (in words) ([3]; crude enzyme solution from E. coli TB1, listed as ISH224-N1C0/pTrc): expressed sialyltransferase; also recorded: retained the activity
